Paper PMC8325870, “SUMOylated non-canonical polycomb PRC1.6 complex as a prerequisite for recruitment of transcription factor RBPJ”

Molecular target: RBPJ wt (UniProt P31266 1-526)
Assay: EMSA; anti-Flag supershift; 10 mM Tris-HCl pH 7.5, 100 mM NaCl, 0.1 mM EDTA, 0.5 mM DTT, 4% glycerol, 10 ng poly(dI-dC), ~0.5 ng 32P-oligo, 2 or 4 ul reticulocyte lysate; temperature not stated
Conditions: protein: ivt; tags: Flag; label: 32P; 5' overhang 4 nt at both ends (CCTG on F, CTCG on R)

Sequence of RBPJ wt (P31266 whole entry): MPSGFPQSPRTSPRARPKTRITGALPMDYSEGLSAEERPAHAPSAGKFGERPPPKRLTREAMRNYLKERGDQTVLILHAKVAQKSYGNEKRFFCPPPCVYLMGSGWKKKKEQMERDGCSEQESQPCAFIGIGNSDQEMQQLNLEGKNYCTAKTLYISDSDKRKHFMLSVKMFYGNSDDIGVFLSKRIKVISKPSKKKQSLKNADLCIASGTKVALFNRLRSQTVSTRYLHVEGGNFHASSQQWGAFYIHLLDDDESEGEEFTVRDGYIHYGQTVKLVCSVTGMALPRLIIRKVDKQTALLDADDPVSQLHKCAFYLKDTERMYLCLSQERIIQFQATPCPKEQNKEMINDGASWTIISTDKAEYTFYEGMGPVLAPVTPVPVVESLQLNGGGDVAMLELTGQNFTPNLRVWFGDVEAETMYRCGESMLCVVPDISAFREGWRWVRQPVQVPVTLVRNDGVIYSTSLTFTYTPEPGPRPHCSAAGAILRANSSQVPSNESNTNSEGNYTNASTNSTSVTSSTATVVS

B1: FO-233F/FO-233R (EBV TP-1 promoter, two RBPJ sites) (dsDNA)
DNA 1: CCTGGAACTATTTTCCCACGGTGCCCTTCCGCCCATTTTCCCACGAGTCG
DNA 2: CTCGCGACTCGTGGGAAAATGGGCGGAAGGGCACCGTGGGAAAATAGTTC
**Q.** Does B1 bind?
**A.** Result: binds
